These results are taken from patent publication US20140335096A1 (Eli Lilly, published 2014).

Experiment [1] deals with T1, glucagon (1-29) (Homo sapiens).
T1 construct: Glucagon (1-29), Anaspec 22456, as analyte in Biacore; the listing names Homo sapiens; also called GCG; glucagon peptide
As to the kind of experiment: Biacore SPR, antibody captured by goat anti-mouse Fc, glucagon (1-29) as analyte; KD = koff/kon. As for the experimental part: (§1) Briefly described, the anti-glucagon monoclonal antibody IBA009 or IBA032, may be dissolved in HBS-EP buffer (150 mM sodium chloride, 3 mM EDTA, 0.005% (w/v) surfactant P-20, and 10 mM N-2-hydroxyethylpiperazine-N′-2-ethanesulfonic acid (HEPES) at pH 7.4; #BR-1001-88). Goat anti-mouse Fc antibody is immobilized on flow cells 1 to 4 of a CMS sensor chip at a level of 4000 response units (RUs) using amine coupling chemistry to capture anti-glucagon antibodies.
(§2) Binding may be evaluated using multiple analytical cycles. Each cycle is performed at a flow rate of 50 μl/minute, and may consist of the following steps: injection of about 10 μl of the anti-glucagon monoclonal antibody IBA009 or IBA032 at 10 μg/ml aiming at a capture of 40-100 RUs, injection of 250 μl of glucagon (1-29) (Anaspec 22456)—(starting at 100 nM and using two-fold serial dilutions for each cycle) followed by 20 minutes for dissociation, and regeneration using about 30 μl of 10 mM glycine hydrochloride, pH 1.5. Association and dissociation rates for each cycle may be evaluated using a “1:1 (Langmuir) binding” model in the BIAevaluation software 4.1.
(§3) The anti-glucagon monoclonal antibodies IBA009 and IBA032 may be tested for binding kinetics to glucagon.
Background: In SPR one partner is held on a chip, and binding of the other changes the refractive index at the surface.

In experiment [2] the target is T1, glucagon (1-29). Description: Biacore SPR, antibody captured by goat anti-mouse Fc, glucagon (1-29) as analyte, 25 C, 1:1 Langmuir model. As for the experimental part:
as §1, §2, §3

Experiment [3] deals with T1, glucagon (1-29). As to the kind of experiment: affinity for glucagon against commercial antibody K79bB10 (Sigma-Aldrich G2654); method of the reference value not stated.
The target of experiment [4] is T1, glucagon (1-29). As to the kind of experiment: affinity for glucagon against commercial antibody 2D3-2B11 (Sigma-Aldrich WH0002641M1); method of the reference value not stated.

T1 sequence (peptide, as listed by the source): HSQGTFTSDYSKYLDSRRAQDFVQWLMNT

B1: anti-glucagon monoclonal antibody IBA032 (antibody, mouse IgG1, kappa, V domains shown)
VH: QVQLQQSGAELVKPGASVKMSCKASGYNFTDYWIHWVKERPGQGLEWIGYFSTHSDYAIINQKFRDKATLTADKSSRLAYMQLSSLTSEDSAIYYCARGGLGLSYWGQGTTVTVSS
VL: DIVMTQAAPSVLVTPGESVSISCRSPKSLVGPMGRTYLYWFLQRPGQSPQLLIYRRNNLAPGVPDRFSGSGSGTAFTLRISRVEAEDVGIYYCMQHLEFPLTFGAGTKLEIKR
notes: Captured through goat anti-mouse Fc in Biacore; ruthenium-labelled as detection antibody in the sandwich ELISA; also called detection/conjugate antibody IBA032; anti-glucagon C-terminal antibody IBA032
For the molecule B1, the Kd (in general, the equilibrium constant for the complex coming apart) in experiment [1] was 8.7 pM. In experiment [2], the koff (commonly the rate constant with which the complex falls apart) came out at 0.00024 s⁻¹ and the kon (in general, a measure of how fast the partners come together) was 2.7e+07 M⁻¹ s⁻¹. Besides, the “fold stronger affinity than reference antibody K79bB10” value in experiment [3] was around 800 fold.

B2: anti-glucagon monoclonal antibody IBA009 (antibody, mouse IgG1, kappa, V domains shown)
VH: QVQLLQPGAELVKPGASVKLSCKASGYNFNDYWLNWVKQRPGQGLEWIGNAYPGWGIINYNEKFKSKVTLTVDTSSSTVYMQLSSLTSDDSAVYYCARDYDNAYWGQGTTVTVSS
VL: NIVMTQSPKSMSMSVGERVTLTCKASENAGTYVAWYQQKPEQSPKLLIYNGSHRYDGVPDRFTGSGSATDFTLTISSVQAEDLADYYCGQSYSYPWTFGGGTKLEMKR
notes: Captured through goat anti-mouse Fc in Biacore; biotin-labelled as capture antibody in the sandwich ELISA; also called capture antibody IBA009; anti-mid region antibody IBA009
The molecule B2 yielded a Kd in experiment [1] of 0.73 pM. In experiment [2], the koff was found to be 1.1e-05 s⁻¹ and the kon was 1.5e+07 M⁻¹ s⁻¹. Moreover, the “fold stronger affinity than reference antibody 2D3-2B11” value in experiment [4] is around 130 fold.
